# Assay results: patent publication US20250129168A1
# Key:
# [1] = biological target: recombinant human-Dectin-1 mouse Fc fusion (human) (UniProt Q9BXN2); test: biosensor, Fab, Ave of three
# [2] = biological target: recombinant human-Dectin-1 mouse Fc fusion (human) (UniProt Q9BXN2); test: biosensor, Fab, first K dis column
# [3] = biological target: recombinant human-Dectin-1 mouse Fc fusion (human) (UniProt Q9BXN2); test: biosensor, Fab, third K dis column
# [4] = biological target: recombinant human-Dectin-1 mouse Fc fusion (human) (UniProt Q9BXN2); test: biosensor, Fab, second K dis column
# [5] = biological target: recombinant human-Dectin-1 mouse Fc fusion (human) (UniProt Q9BXN2); test: biosensor, Fab, Ave K dis (n = 3); repeats Table 3
binder,measurement,setting,value
"2M24A.23 hFab H1 (Fab, V domains shown) VH: QVQLVQSGAEVKKPGASVKVSCKSSGYTFTDYYIHWVRQAPGQGLEWMGWINPNSGDTNYAQKFQGRVTMTRDTSISTAYMELSRLRSDDTAVYYCARNSGSYSFGYWGQGTLVTVSS VL: DIQMTQSPSSVSASVGDRVTITCRASQGISSWLAWYQQKPGKAPKLLIFGASSLQSGVPSRFSGSGSGTDFTLTVSSLQPEDFATYYCQQAYSFPFTFGPGTKVDIE",koff,[1],0.00396 s⁻¹
same,koff,[2],0.00841 s⁻¹
same,koff,[3],0.00204 s⁻¹
same,koff,[4],0.00143 s⁻¹
same,koff,[5],0.00396 s⁻¹
"2M24A.25 hFab H3 (Fab, V domains shown) VH: QVQLVQSGAEVKKPGASVKVSCKASGYTFTDYYIHWVRQAPGQGLEWMGWINPNSGDTNYAQKFQGRVTMTRDTSISTAYMELSRLRSDDTAVYYCARNSGSYSFGYWGQGTLVTVSS VL: DIQMTQSPSSVSASVGDRVTITCRASQGISSWLAWYQQKPGKAPKLLIFGASSLQSGVPSRFSGSGSGTDFTLTVSSLQPEDFATYYCQQAYSFPFTFGPGTKVDIE",koff,[1],0.0037 s⁻¹
same,koff,[2],0.00765 s⁻¹
same,koff,[3],0.00214 s⁻¹
same,koff,[4],0.00132 s⁻¹
same,koff,[5],0.0037 s⁻¹
"2M24A.26 hFab H4 (Fab, V domains shown) VH: QVQLVQSGAEVKKPGASVKVSCKSSGYTFTDYYMHWVRQAPGQGLEWMGWINPNSGDTNYAQKFQGRVTMTRDTSISTAYMELSRLRSDDTAVYYCARNSGSYSFGYWGQGTLVTVSS VL: DIQMTQSPSSVSASVGDRVTITCRASQGISSWLAWYQQKPGKAPKLLIFGASSLQSGVPSRFSGSGSGTDFTLTVSSLQPEDFATYYCQQAYSFPFTFGPGTKVDIE",koff,[1],0.00264 s⁻¹
same,koff,[2],0.0053 s⁻¹
same,koff,[3],0.0016 s⁻¹
same,koff,[4],0.00102 s⁻¹
same,koff,[5],0.00264 s⁻¹
